From paper PMC7478896, “EphrinB2-EphB4 signalling provides Rho-mediated homeostatic control of lymphatic endothelial cell junction integrity” (eLife, 2020)

Target: T1, EphB4 (human (endogenous in HDLEC), UniProt P54760 16-987)
T1 sequence (looked up): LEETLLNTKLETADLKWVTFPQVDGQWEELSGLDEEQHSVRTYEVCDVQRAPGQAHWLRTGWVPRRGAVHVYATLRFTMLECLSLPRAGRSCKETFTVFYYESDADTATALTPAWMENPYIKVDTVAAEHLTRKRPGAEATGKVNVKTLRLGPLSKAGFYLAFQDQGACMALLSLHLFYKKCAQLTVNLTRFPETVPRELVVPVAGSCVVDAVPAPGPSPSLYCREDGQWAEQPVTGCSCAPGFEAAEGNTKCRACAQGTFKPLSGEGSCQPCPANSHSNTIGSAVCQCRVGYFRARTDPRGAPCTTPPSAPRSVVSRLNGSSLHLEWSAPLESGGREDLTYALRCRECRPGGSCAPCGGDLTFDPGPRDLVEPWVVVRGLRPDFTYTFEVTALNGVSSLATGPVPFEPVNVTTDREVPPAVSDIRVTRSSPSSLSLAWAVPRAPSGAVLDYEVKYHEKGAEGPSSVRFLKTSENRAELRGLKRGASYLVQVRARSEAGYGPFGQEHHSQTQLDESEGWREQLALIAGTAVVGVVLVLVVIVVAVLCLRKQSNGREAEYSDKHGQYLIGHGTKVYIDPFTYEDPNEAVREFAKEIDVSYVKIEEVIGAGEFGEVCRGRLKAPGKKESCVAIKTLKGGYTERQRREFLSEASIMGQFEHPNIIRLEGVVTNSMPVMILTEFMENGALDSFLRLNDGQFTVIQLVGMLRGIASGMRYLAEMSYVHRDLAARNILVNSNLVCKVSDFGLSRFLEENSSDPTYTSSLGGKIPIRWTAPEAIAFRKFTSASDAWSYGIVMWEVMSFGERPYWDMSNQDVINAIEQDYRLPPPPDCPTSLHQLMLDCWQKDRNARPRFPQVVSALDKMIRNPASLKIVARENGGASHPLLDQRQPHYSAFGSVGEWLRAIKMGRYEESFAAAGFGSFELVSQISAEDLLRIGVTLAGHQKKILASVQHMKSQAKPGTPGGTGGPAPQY
Experiment: cell-based or functional assay

B1: recombinant human EphrinB2-Fc (Fc fusion, UniProt P52799 28-229, looked up)
chain: IVLEPIYWNSSNSKFLPGQGLVLYPQIGDKLDIICPKVDSKTVGQYEYYKVYMVDKDQADRCTIKKENTPLLNCAKPDQDIKFTIKFQEFSPNLWGLEFQKNKDYYIISTSNGSLEGLDNQEGGVCQTRAMKILMKVGQDASSAGSTRNKDPTRRPELEAGTNGRSSTTSPFVKPNPGSSTDGNSAGHSGNNILGSEVALFA
- Rac1 activity (Rac1-GTP pull-down) in HDLECs after 30 min stimulation with 0.5 µg/ml clustered EphrinB2-Fc: 2 fold
